The source of these data is article PMC2914677, “Characterisation of recombinant pyranose oxidase from the cultivated mycorrhizal basidiomycete Lyophyllum shimeji (hon-shimeji)” (Microbial Cell Factories, 2010).

Data set [1] relates to O=C1C(Cl)=CC(=Nc2ccc(O)cc2)C=C1Cl. Description: purified protein. The settings on record: apparent, electron acceptor, 100 mM D-glucose, oxygen removed with nitrogen, pH 6.5, 30°C, 50 mM potassium phosphate.
A further data set relates to O=C1C=CC(=O)C=C1. Kind of data set: purified protein. The settings on record: apparent, electron acceptor, 100 mM D-glucose, oxygen removed with nitrogen, pH 6.5, 30°C, 50 mM potassium phosphate.
For a further data set, the target named is T1, PcP2Ox (Phanerodontia chrysosporium, UniProt Q6QWR1).
T1 construct: gene p2ox; C-terminal His6 tag kept, pET21-a(+), E. coli BL21(DE3), IMAC
T1 sequence (Q6QWR1 whole entry): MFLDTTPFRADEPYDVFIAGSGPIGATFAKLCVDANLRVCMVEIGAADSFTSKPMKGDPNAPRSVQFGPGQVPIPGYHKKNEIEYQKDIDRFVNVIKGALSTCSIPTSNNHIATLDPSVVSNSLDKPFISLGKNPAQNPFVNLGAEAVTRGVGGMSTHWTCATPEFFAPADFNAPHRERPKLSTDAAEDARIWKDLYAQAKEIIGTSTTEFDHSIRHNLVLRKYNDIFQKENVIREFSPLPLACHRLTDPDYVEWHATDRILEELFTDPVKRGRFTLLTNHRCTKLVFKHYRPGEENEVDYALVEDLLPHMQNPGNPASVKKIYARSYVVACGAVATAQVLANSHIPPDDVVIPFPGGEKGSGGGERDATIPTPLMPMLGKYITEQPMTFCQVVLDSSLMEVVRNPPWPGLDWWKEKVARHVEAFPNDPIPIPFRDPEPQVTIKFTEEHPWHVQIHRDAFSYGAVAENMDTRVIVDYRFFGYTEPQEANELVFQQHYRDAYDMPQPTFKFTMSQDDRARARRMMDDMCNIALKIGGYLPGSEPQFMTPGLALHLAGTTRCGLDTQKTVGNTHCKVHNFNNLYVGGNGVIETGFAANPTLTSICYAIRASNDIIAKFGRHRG
Description: absorbance at […] nm. It is filed as biochemical. The settings on record: apparent; electron acceptor, 100 mM D-glucose, oxygen removed with nitrogen, pH 6.5, 30°C, 50 mM potassium phosphate; used as PF6 salt.

The target of a further data set is T2, TmP2Ox (Trametes ochracea, UniProt Q7ZA32).
T2 construct: gene p2o; C-terminal His6 tag kept, pET21-d(+), E. coli BL21(DE3), IMAC
Description: absorbance at […] nm. It is filed as biochemical. The conditions noted are these: apparent; electron acceptor, 100 mM D-glucose, oxygen removed with nitrogen, pH 6.5, 30°C, 50 mM potassium phosphate; used as PF6 salt.

The target of a further data set is T3, LsP2Ox (Lyophyllum shimeji, UniProt Q75ZP8).
T3 construct: gene p2ox; full-length cDNA (ORF 1857 bp, 619 residues), C-terminal His6 tag kept, pET21a(+), E. coli Rosetta 2; purified by AIEX and preparative native PAGE; subunit 68,488 Da
Description: absorbance at […] nm. Type of data set: biochemical. The settings on record: apparent; electron acceptor, 100 mM D-glucose, oxygen removed with nitrogen, pH 6.5, 30°C, 50 mM potassium phosphate; used as PF6 salt.

Substrate in data set [2]: O=C1C=CC(=O)C=C1
Kind of data set: purified protein. It is filed as biochemical, Lyophyllum shimeji. The settings on record: apparent, electron acceptor, 100 mM D-glucose, oxygen removed with nitrogen, pH 6.5, 30°C, 50 mM potassium phosphate.

Substrate in data set [3]: O=C1C(Cl)=CC(=Nc2ccc(O)cc2)C=C1Cl
Kind of data set: purified protein. The conditions noted are these: apparent, electron acceptor, 100 mM D-glucose, oxygen removed with nitrogen, pH 6.5, 30°C, 50 mM potassium phosphate. It is filed as biochemical, Lyophyllum shimeji.

One may read the Km as the substrate concentration at which the rate is half of its maximum. As a reminder, the kcat is the number of substrate molecules converted per active site and unit of time at saturation. In general, kcat/Km refers to the turnover number divided by the Michaelis constant.

Consider TmP2Ox (Trametes ochracea), for which, in data set [1], the Km stood at 413 µM, the kcat was 42 s⁻¹ and the kcat/Km was 102000 M⁻¹ s⁻¹. Besides, in the data set with O=C1C=CC(=O)C=C1, the Km was determined as 253 µM, the kcat is 225 s⁻¹ and the kcat/Km was 895000 M⁻¹ s⁻¹.
With `C1=CCC=C1.C1=CCC=C1.[Fe+3]` [ferrocenium ion], the Km at PcP2Ox amounted to 330 µM; on TmP2Ox, 507 µM; at LsP2Ox, 187 µM.

B1: LsP2Ox (Lyophyllum shimeji) (protein)
chain: MSLSTEQMLRDYPRSMQINGQIPKNAIHETYGNDGVDVFIAGSGPIGATYAKLCVEAGLRVVMVEIGAADSFYAVNAEEGTAVPYVPGYHKKNEIEFQKDIDRFVNVIKGALQQVSVPVRNQNVPTLDPGAWSAPPGSSAISNGKNPHQREFENLSAEAVTRGVGGMSTHWTCSTPRIHPPMESLPGIGRPKLSNDPAEDDKEWNELYSEAERLIGTSTKEFDESIRHTLVLRSLQDAYKDRQRIFRPLPLACHRLKNAPEYVEWHSAENLFHSIYNDDKQKKLFTLLTNHRCTRLALTGGYEKKIGAAEVRNLLATRNPSSQLDSYIMAKVYVLASGAIGNPQILYNSGFSGLQVTPRNDSLIPNLGRYITEQPMAFCQIVLRQEFVDSVRDDPYGLPWWKEAVAQHIAKNPTDALPIPFRDPEPQVTTPFTEEHPWHTQIHRDAFSYGAVGPEVDSRVIVDLRWFGATDPEANNLLVFQNDVQDGYSMPQPTFRYRPSTASNVRARKMMADMCEVASNLGGYLPTSPPQFMDPGLALHLAGTTRIGFDKATTVADNNSLVWDFANLYVAGNGTIRTGFGENPTLTSMCHAIKSARSIINTLKGGTDGKNTGEHRNL
notes: full-length cDNA (ORF 1857 bp, 619 residues), C-terminal His6 tag kept, pET21a(+), E. coli Rosetta 2; purified by AIEX and preparative native PAGE; subunit 68,488 Da
For B1, in the data set “purified protein [2]”, the Km stood at 33 µM, the kcat turned out to be 92.3 s⁻¹ and the kcat/Km turned out to be 2.76e+06 M⁻¹ s⁻¹. For the same molecule, in the data set “purified protein [3]”, the Km is 187 µM, the kcat was 67.3 s⁻¹ and the kcat/Km was found to be 361000 M⁻¹ s⁻¹.
